Experiment [1] concerns mouse model of ATN or ischemia/reperfusion injury. As to the kind of experiment: Mouse model of ATN (30 min clamp, contralateral nephrectomy): plasma creatinine. Format: in vivo, mice. The protocol: (§1) Male C57BL/6 mice (20-25 gr; Charles River) were anesthetized with intraperitoneal pentobarbital (50 mg/kg) and placed on a heating pad under a warming light to maintain 37© core body temperature. Kidneys were exposed through an abdominal section and the right kidney was either removed or its vascular pedicle and ureter ligated. The vascular pedicle of the left kidney or both kidneys was clamped by a microaneurysm clip (Kent Scientific) for 30 minutes after right nephrectomy. This period of ischemia generated reproducible renal injury but minimized mortality. During the procedure, PBS (0.5 ml) was used to dampen the peritoneum. The animal was closed with 5-0 Nylon. Saline, NGAL, retinol-loaded retinol binding protein (RBP), enterochelin, or desferroxamine mesylate (DFO) were injected into the peritoneum or subcutaneously 15 min. prior to ischemia or 1-2 hr after reperfusion.
(§2) After 6 or 24 hr of reperfusion, heparinized plasma, urine and kidney samples were obtained to measure NGAL (polyclonal 1:500), Heme oxygenase-1 (Stressgen, 1:2000), E-cadherin (BD Transduction Labs, 1:2000), N-cadherin (BD Transduction Labs, 1:3000) and GAPDH (Chemicon International, 1:3000) using immunoblots. Plasma was also used for creatinine and blood urea nitrogen colorimetric assays. Sagittal sections of the kidney were fixed in 4% formalin, or were snap frozen for mRNA and protein analysis. Paraffin-embedded sections (5 μm) were stained with hematoxylin-eosin or by an in situ kit (Fluorescein-TUNEL, Roche) for apoptotic nuclei or for total nuclei (Toprol, Molecular Probes). For cell proliferation analysis, BrdU was injected into the peritoneum 1 hour before sacrifice, and cryostat sections were stained with anti-BrdU (Roche) according to the manufacturer.

The next experiment deals with heme oxygenase-1 (HO-1). Put plainly: Heme oxygenase-1 immunoblot of kidney. Format: in vivo, mice.
Description: as §2
(Immunoblotting shows a protein as a band on a membrane.)

For the next experiment, the system named is N-cadherin. As to the kind of experiment: N-cadherin immunofluorescence and immunoblot in ischemic kidney. Format: in vivo, mice. As to conditions: pre-treatment with NGAL, 6 or 24 hours of reperfusion.
Description: as §2

The subject of experiment [2] is ischemia-reperfusion injury in mice. Put plainly: Serum creatinine 24 h after bilateral renal artery clamping, NGAL intravenous. Format: in vivo. As for the experimental part:
Purified endotoxin-free NGAL was administered either intravenously into mice via tail vein injections, subcutaneously, or intraperitoneally. In preliminary studies, animals were treated with three different concentrations of NGAL (50, 100, or 250 μg of a 250 μg/100 solution), subjected to 30 minutes of bilateral renal artery clamping one hour later, and examined after 24 hours of reflow. […] All subsequent studies as reported here were carried out using the 250 μg dose of NGAL. Comparisons were made between five different animal groups: non-ischemic controls (n=8), ischemic controls pre-treated with saline alone (n=8), NGAL pre-treated one hour prior to renal artery clamping (n=6), NGAL treated during renal artery clamping (n=6), and NGAL treated one hour post renal artery clamping (n=6).
as §1
For some studies, the mice were allowed to recover in a warmed cage, and timed urine collections were obtained. […] The mice were killed, the kidneys perfusion fixed in situ with 4% paraformaldehyde in PBS, and both kidneys harvested. One half of each kidney was snap frozen in liquid nitrogen and stored at −70° C. until further processing; a sample was fixed in formalin, paraffin-embedded, and sectioned (4 μm). Paraffin sections were stained with hematoxylin-eosin and examined histologically. The other half of each kidney was embedded in OCT compound (Tissue-Tek) and frozen sections (4 μm) obtained for immunohistochemistry.

A further experiment concerns endogenous NGAL. As to the kind of experiment: Endogenous NGAL expression after exogenous NGAL (real time PCR, immunoblot). Format: in vivo, mice. More on the design: reduction of the increase in endogenous NGAL RNA / reduction of endogenous NGAL protein in the kidney: dose or concentration left out as unconfirmed.
Description: as §2
Total RNA was extracted from mouse kidneys using RNeasy mini kit (Qiagen) with on-column DNase digestion according to the manufacturer's instructions. The cDNA template was synthesized using Omniscript Reverse Transcriptase and oligo-dT primer (Qiagen). The PCR reaction was carried out using iQ SYBR green super mix and MyiQ single-color real-time PCR detection system (Biorad) with incubation times of 2 min at 95° C., followed by 40 cycles of 95° C./30 s and 60° C./30 s. Specificity of the amplification was checked by melting curve analysis and by agarose gel electrophoresis. Primer sequences for mouse NGAL mRNA (Genbank NM_008491) were […] (forward primer, positions 93-112) and […] (reverse, 576-557). Sequences for mouse β-actin mRNA (Genbank X03672) were […] (forward, 415-434) and […] (reverse, 696-677). Each plate included a dilution series of standard sample, which was used to determine mRNA quantities. The NGAL mRNA content was normalized by β-actin mRNA.
(Quantitative PCR measures a nucleic acid by following its amplification.)

A further experiment deals with cortical tubules. Put plainly: BrdU uptake: percent of cortical tubules with BrdU-positive cell. Format: in vivo, mice. As to conditions: NGAL pretreated, 24 hours after insult; ischemic 1.9%, sham 3.7%.
Description: as §2

Experiment [3] in a line: Cofactor-dependent ^55Fe binding to NGAL (10 kDa filter retention). The protocol: The urine fraction was obtained by passing fresh urine sequentially through 10 kDa and 3 kDa membranes (YM-10 and YM-3, Amicon). The mixture was then washed three times on 10 kDa membrane (YM-10, Amicon). Iron-free enterochelin-loaded NGAL (rather than NGAL without siderophore) served as a positive control for iron capture. Ferric citrate (1 mM) or iron-loaded enterochelin (Sid:Fe, 50 μM) were used as competitors of ^55Fe binding.

For experiment [4], the system named is ischemia-reperfusion injury in mice. As to the kind of experiment: Histopathology scoring of tubule damage (dilatation, casts, necrosis) after ischemia-reperfusion. Format: in vivo. As to conditions: NGAL before, during or after ischemia, 24 h reflow, vs saline controls. The protocol:
Purified endotoxin-free NGAL was administered either intravenously into mice via tail vein injections, subcutaneously, or intraperitoneally. In preliminary studies, animals were treated with three different concentrations of NGAL (50, 100, or 250 μg of a 250 μg/100 solution), subjected to 30 minutes of bilateral renal artery clamping one hour later, and examined after 24 hours of reflow. […] All subsequent studies as reported here were carried out using the 250 μg dose of NGAL. […]
Kidney sections of 4 microns were stained with hematoxylin-eosin and scored for histopathologic damage to the tubules in a blinded fashion, as previously described by Yokota N. et al., Am J Physiol Renal Physiol 285: F319-F325, 2003 and Kjeldsen L. et al., Biochim Biophys Acta 1482: 272-283, 2000. Each parameter was assessed in five high power fields (40×) in the inner cortex and outer medullary regions (where the tubular damage was most evident), and an average determined for each section. […] Each parameter was scored on a scale of 0 to 4, ranging from none (O), mild (1), moderate (2), severe (3), to very severe/extensive (4).

“Also recorded” adds a separate entry of the source.

B1: NGAL: Purified endotoxin-free recombinant NGAL expressed as GST fusion protein in bacteria, thrombin cleaved (protein, UniProt P80188 21-198, looked up)
Neutrophil …: QDSTSDLIPAPPLSKVPLQQNFQDNQFQGKWYVVGLAGNAILREDKDPQKMYATIYELKEDKSYNVTSVLFRKKKCDYWIRTFVPGCQPGEFTLGNIKSYPGLTSYLVRVVSTNYNQHAMVFFKKVSQNREYFKITLYGRTKELTSELKENFIRFSKSLGLPENHIVFPVPIDQCIDG
With B1, the “plasma creatinine 24 hours after reperfusion” value in experiment [1] (1 μg NGAL (not protective)) is 3.09 ± 0.11 mg/dL; in experiment [1] (100 μg NGAL 15 minutes before clamping, untreated 3.16±0.17), 1.18 ± 0.18 mg/dL; in experiment [1] (NGAL one hour after reperfusion) it was 1.60 ± 0.28 mg/dL. Further, in experiment [1] (NGAL 2 hours after ischemia (no protective effect)), the plasma creatinine is 3.12 ± 0.35 mg/dL. Further, the “protection against ATN (creatinine, FIG. 17A)” value in experiment [1] (administered later than one hour after ischemia) was “ineffective”. The “upregulation of HO-1 over ATN alone” value with heme oxygenase-1 (HO-1) (ATN-injured mice, 10-100 μg NGAL, 24 hours after reperfusion) is recorded as 5-10 fold. Also, in the experiment on heme oxygenase-1 (HO-1) (healthy mice (Sham), increasing doses of NGAL), the “expression of HO-1 after NGAL injection” value is listed as “much less than the NGAL-treated ATN-injured kidneys”. Further, the “N-cadherin expression in ischemic kidney” value in the experiment on N-cadherin was “preserved N-cadherin immunofluorescence, enhanced the expression of full length N-cadherin and reduced the appearance of its fragment; also recorded: rescued”. Also, in experiment [2] (250 μg NGAL one hour before 30 min bilateral renal artery clamping, 24 h reflow, vs saline, doses 50, 100, 250 μg tested), the “protection from the tubular damage and azotemia” value was “significant protection from the tubular damage and azotemia”. The “serum creatinine at 24 hours of reflow” value amounted to 1.5±0.2 mg/di in experiment [2] (NGAL 250 μg iv during ischemia (Dur NGAL)); 1.95±0.2 mg/di in experiment [2] (NGAL 250 μg iv one hour after ischemia (Post NGAL)); 1.25 ± 0.3 mg/dL in experiment [2] (NGAL 250 μg iv one hour before ischemia (Pre NGAL), saline 2.6±0.28, non-ischemic 0.65±0.13). Also, the “reduction of the increase in endogenous NGAL RNA” value with endogenous NGAL (24 hours of reperfusion, real time PCR) is listed as 72%±16. For the same molecule, the “endogenous NGAL protein in the kidney” value in the experiment on endogenous NGAL (NGAL-treated ischemia, ischemia 73±7) amounted to 29 ± 7 µg/g. In the experiment with endogenous NGAL (immunoblot), the “reduction of endogenous NGAL protein in the kidney” value came out at 2.5 fold. Besides, the “percent of cortical tubules with at least one BrDU-positive tubular cell” value in the experiment with cortical tubules is reported as 3.9%±0.5. Further, the “NGAL molecules that bound iron” value in experiment [3] (30 μl of mouse urine) is “approximately 20%”. In addition, the “retention of ^55Fe” value in experiment [3] (with mouse urine fraction (<3,000 Da), washed on 10 kDa filter) is “permitted the retention of ^55Fe”. The “histopathologic score (dilatation, casts, cell necrosis; scale 0 to 4)” value in experiment [4] is given as “significantly improved score”.

Values taken from patent publication US8247376B2, “NGAL for reduction and amelioration of ischemic and nephrotoxic injuries” (The Trustees of Columbia University, priority 2004, dated 2012).
